Results taken from patent CN115710309A (INST PASTEUR SHANGHAI CAS, dated 2023).

Tests used:
Assay in all cases: cell-based or functional assay
SARS-CoV-2 S蛋白 (野生型假病毒) [1] = biological target: SARS-CoV-2 S蛋白 (野生型假病毒) (SARS-CoV-2, UniProt P0DTC2 14-1273)
[2] = biological target: SARS-CoV-2活病毒nCoV-SH01株的S蛋白 (SARS-CoV-2, UniProt P0DTC2 14-1273)
SARS-CoV-2 S蛋白 (野生型假病毒) [3] = biological target: SARS-CoV-2 S蛋白 (野生型假病毒) (SARS-CoV-2, UniProt P0DTC2 14-1273); remark: listed apart in the source

| Binder | 假病毒中和试验 半数抑制浓度(IC50) (SARS-CoV-2 S蛋白 (野生型假病毒) [1]) | 活病毒中和 IC50 [2] | 假病毒中和试验 半数抑制浓度(IC50) (SARS-CoV-2 S蛋白 (野生型假病毒) [3]) |
| --- | --- | --- | --- |
| 单抗2G3 (antibody) heavy: QVQLQQPGAELVKPGASVKMSCKASGYTFTTYTIHWLRQTPGQGLEWIGAIYPGIGDTSYNQSFKGKATLTADKSSSTAYMQLSSLTSEDSAVYYCARDGNYAPFTYWGQGTLVTVSAAKTTPPSVYPLAPGSAAQTNSMVTLGCLVKGYFPEPVTVTWNSGSLSSGVHTFPAVLQSDLYTLSSSVTVPSSTWPSETVTCNVAHPASSTKVDKKIVPRDCGCKPCICTVPEVSSVFIFPPKPKDVLTITLTPKVTCVVVDISKDDPEVQFSWFVDDVEVHTAQTQPREEQFNSTFRSVSELPIMHQDWLNGKEFKCRVNSAAFPAPIEKTISKTKGRPKAPQVYTIPPPKEQMAKDKVSLTCMITDFFPEDITVEWQWNGQPAENYKNTQPIMDTDGSYFVYSKLNVQKSNWEAGNTFTCSVLHEGLHNHHTEKSLSHSPGK light: DIVMSQSPSSLAVSVGEKVTMSCKSSQSLLYSNNQKNYLAWYQQKPGQSPKLLIYWTSTRESGVPDRFTGSGSGTDFTLTINSVKAEDLAVYYCQQYYRYPLTVGAGTKLELKRADAAPTVSIFPPSSEQLTSGGASVVCFLNNFYPKDINVKWKIDGSERQNGVLNSWTDQDSKDSTYSMSSTLTLTKDEYERHNSYTCEATHKTSTSPIVKSFNRNEC | 0.007 µg/mL | 0.032 µg/mL |  |
| 单抗3A2 (antibody, V domains shown) VH: QVTLKESGPGILQPSQTLSLTCSFSGFSLSTSGMGVSWIRQPSGKGLEWLAHIYWDDDKRYNPSLKSRLTISKDTSSSQVFLKITSVDTVDTATYYCARRGPLITTDGTFDVWGAGTTVTVSS VL: DIVMTQSRKFMSTSVGDRVSITCKASQDVGTSVAWYQQKPGQSPKLLIYWASTRHTGVPDRFTGSGSGTDFTLTINSVQSEDLADYFCQQYSSYPYTFGGGTKLEMK |  |  | 0.049 µg/mL |
| 单抗8D3 (antibody, V domains shown) VH: EVQLQQSGPELVKPGASVKISCKTSGYTFTEYTMYWVKQSHGKSLEWIGGINPNIGDTSYNQNFKGKATLTVDRSSSTAYMELRSLTSEDSAVYYCARDGYPYYYALDHWGQGTSVTVSS VL: DIVMTQSQKFMSTSVGDRVSVTCKASQNVGTNVAWYQQKPGQSPKALIYSTSYRYSGVPDRFTGSGSGTDFTLTISNVQSEDLAEYFCQQYNSYPYTFGGGTKLEIKR | 0.007 µg/mL | 0.071 µg/mL |  |
